Experimental findings from the nanobody polyreactivity screen of Harvey et al. (2022) are described below.

This series in a line: yeast display, Sf9 membrane polyspecificity reagent, FACS + sequencing; frameworks hold sequencing errors. The method, boiled down: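 Sorting gates, low and high (top ~1%), were placed on anti-HA fluorescence to track expression and on streptavidin fluorescence to track reagent binding. A clone's polyreactivity label is taken from the gate it came out of. The reagent was 10% biotinylated, detergent-solubilized Sf9 membrane, applied for 1 hour at 4 °C to galactose-induced yeast display cells.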
With “QVQLVESGGGLVQAGGSLRLSCAASGFISYYYAMGWYRQAPGKDWELVAVITSGGSTDYADSVKGRFTISRDHAKNTVYLQMNSLKPEDTAVYYCARDDPASHKRYWHDYWGQGTQVTVSS”, the “polyreactivity (PSR sort gate)” value is on record as “low polyreactivity”.

With “QVQLVESGGGLVQAGGSLRLSCSASGSTFEKNAMGWYRQAPGKERELVAAISNGVSTYYADSVKGRFTNSRDNAKNTVYLKINSLKPEDTAVYYCAAVLFFGAETVYYDKFDYWGQGTQVTVSS”, the “polyreactivity (PSR sort gate)” value is “low polyreactivity”.

Regarding “QVQLVESGGGLVQAGGSLRLSCAASGSILYAYAMGWYRQAPGKERELLAAISSSGGGTYADSVKGRFTISRDNAKNTVYLQMNSLKPEDTAVYYCNADARGGIYFRGVKFDYWGQGTQVTVSS”, the “polyreactivity (PSR sort gate)” value is listed as “high polyreactivity”.

As to “QVQLVESGGGLVQAGGSLRLSCAASGSIFYPYAMGWYRQAPGKERELVAAIRFSGGRTYYADSVKGRFTISRDNAKNTVYLQMNSLKPEDTAVYYCAAEYYGIYSPYDYWGQGTQVTVSS”, the “polyreactivity (PSR sort gate)” value is given as “high polyreactivity”.

Take “QGQLVVSGGGLVQAGGSLRLSCAASGRTFYWNAMGWSIQAPGKERELFASINGGGSTYYADSVKGRFTISRDNAKNTVYLQMYSLKPEDTAVYYCNAESYEFHRAWGDYDDWGHGTQVTVSS”: the “polyreactivity (PSR sort gate)” value is recorded as “low polyreactivity”.

Turning to “QVQLVESGGGLVQAGGSLRLSCAASGPIFKRNAMGWYRQAPGKERELVAAISGSGGRTYYADSVKGRFTISRDNAKYTVYLQMNSLKREDTAVYYCNAGGSYYARGMDYWGQGTQVTVSS”, the “polyreactivity (PSR sort gate)” value was “high polyreactivity”.

Turning to “QVQLVESGGGLDQAGGSLRLICAASGFIFVWYAMGWYRPAPGKERELVAAISRRGGGTYYADSVKGRFTISRDNAKNTVYLQMNSLKPEDTAVYYCAAGSYYRYGYDFNYWGQGTQVTVSS”, the “polyreactivity (PSR sort gate)” value is listed as “high polyreactivity”.

“QVQLVESGGGLVQAGGSLRLSCAASGSTFGVNAMGWYRQAPGKERELVAAISSSGSSTYADSVKGRFTISRDNAKNTVYLQMNSLKPEDTAVYYCAAQSPAYYTKSYWGQGTQVTVSS”: the “polyreactivity (PSR sort gate)” value is “low polyreactivity”.

Turning to “QVQLVESGGGLVQAGGSLRLSCAASGIFASYAMGWYRQAPGKERELVADITWRGGNTFYADSVKGRFTISRDNAKNTVYLQMNSLKPEDTAVYYCAADYRPYLRYTVRGYGYWGQGTKVTVSS”, the “polyreactivity (PSR sort gate)” value is listed as “high polyreactivity”.

Consider “QVQLVESGGGLVQAGGSLRLSCAASGFIFRHNAMGWYRQAPGKEREFVAAISISGGSTYYADSVKGRFTISRDNAKNTVDLQMNSLKPEDTAVYYCNARSLGNTYLLYDYWGQGTQVTVSS”, for which the “polyreactivity (PSR sort gate)” value is recorded as “low polyreactivity”.

For the sequence “QVQLVQSGGGLVQAGGSLRLSCAASGSTFPQNAMGWNRQAPGKERELVAVISRSGGNTYYADSVKGRFTISRDNAKNTVYLQMNSLKPEDTAVYYCATRVNTTYDYWGQGTQVTVSS”, the “polyreactivity (PSR sort gate)” value is “low polyreactivity”.

“QVQLEESGGGLVQAGGSLRLSCAASGRICAYYTMGWYRQAPGKERELVASITSGSSTNYADSVKGRFTISRDNAKNTVYLQMNSLKPEDTAVYYSAAPRGSYVRTRYRGYVVQSNYWGQGTQVTVSS”: the “polyreactivity (PSR sort gate)” value is recorded as “high polyreactivity”.

On to “QVQLVESGGGLVQAGGSLRLSCAASGIIFISYVMGWYRQAPGKERELVAAITRSGDSTYYADSVKGRFTISRDNAKNTVYVQMNSLKPEDTAVYYCAAEHAYSYWDYDYWGQGTQVTVSS”, for which the “polyreactivity (PSR sort gate)” value was “high polyreactivity”.

For “QVQLVESGGGLVQAGGSLRLSCAASGITFRKYAMGWYRQAPGTERELVAAISAGGGRTFYADSVKGRFTISRDNAKNTVYLQMNSLKPEDTAVYYCNADLGIGYDYWGQGTQVTVSS”, the “polyreactivity (PSR sort gate)” value is “high polyreactivity”.

“QVQLGESGGGLVQAGGSLRLSCAASGRIFSTYVMGLYRQAPGKERELVAAITRGGSTNYADSVKGRFTISRDNAKNTVYLQMNSLKPEDTADYYCNAQRRGTYYWGQGTQVTVSS”: the “polyreactivity (PSR sort gate)” value is “high polyreactivity”.

Regarding “QVQLVESGGGLVQAGGSLRLSCAASGFIFIQNDMGWYRQAPGKEREFVASISKDGGRTYYADSVKGRFTISRDNAKNTVYLQMNSLKPEDTAVYYCNTYPRGNWGNFVEQDYDYWGQGTQVTVSS”, the “polyreactivity (PSR sort gate)” value is on record as “low polyreactivity”.

For the sequence “QVQLVESGGGLVQAGGSLRLSCAASGYIFYSNDMGWSRQAPGKVRELVAAIDNGGSTTYADSVKGRFTISRDNAKNTVYLQMNSLKPEDTAVYYCATDNPFTSTTYDYWGQGTQVTVSS”, the “polyreactivity (PSR sort gate)” value is “low polyreactivity”.

Consider “QVQLVESGGGLVQAGGSLRLSCAASGRTFTRYAMGWYRQAPGKEREFVAAITTRGGSTYYADSVKGRFTISRDNAKNTVYLQMNSLKPEDTAVYYCAADYYYVQVLYDLGLDYWGQGTQVTVSS”, for which the “polyreactivity (PSR sort gate)” value is on record as “high polyreactivity”.

Take “QVQLVESGGGLVQAGGSLRLSCAASGSTFTGYAMGWYRQAPGKERELVAAISRSGGSTSYADSVKGRFTISRDNAKNTVYLQMNSLKPEDTAVDYCAAQVQGTTRAKQRGGIGELDYWGQGTQVTVSS”: the “polyreactivity (PSR sort gate)” value is “low polyreactivity”.

For “QVQLGESGGGLVQAGGSLRLSCAASGSTLYPYAMGWNRQATGTERELFAAISWSGTRTYYADSVKGRFTISRDNAKNTVYLQMNSLKQEDTAVYYCAKSRTRYPSNTKYDYWGQGTQVTVSS”, the “polyreactivity (PSR sort gate)” value is “high polyreactivity”.

For the sequence “QVQLVESGGGLVQAGGSLRLSCAASGSIFSWYAMGWYRQAPGKERELVAAITWTGGSTYYADSVKGRFTISRDNAKNTVYLQMLSLKPEDTAVYYCAARRVVYRYYWYSAYDYWGQGTQVTVSS”, the “polyreactivity (PSR sort gate)” value is “high polyreactivity”.

For “QVQLVESGGGLVQAGGSLRLSCAASGSICGPYALGWYRQAPGKERELVAAITWTGGRTYYADSVKGRFTISRDNAKNTVYFQMNSLKPEDTAVYYCAADYSPSTWYLYYTLYYYWGQGTQVTVSS”, the “polyreactivity (PSR sort gate)” value is listed as “low polyreactivity”.

Consider “QVQLVESGGGLVQAGGSLRLSCAASGIIFFDYAMGWYRQAPGKDRELVAAISSGGGNTYYADSVKGRFTISRDNAKNTVYLQMNSLKPEDSAVYYCAAEPYIYGEQGAYDYWGQGTQVTVSS”, for which the “polyreactivity (PSR sort gate)” value is reported as “low polyreactivity”.

Take “QVQLVESGGGLVQAGGSLRLSCAASGSTFVAYAMGWYRQAPGKERELVAAISSVGRTNYADSVKGRFTISRDNAKYTVYLQMNSLKPEDTAVYYCAAVYVDRRKRSYYWGQGTQVTVSS”: the “polyreactivity (PSR sort gate)” value is listed as “high polyreactivity”.

Consider “QVQLVESGGGLVQAGGSLRLSCAASGSTFRYNAMGWYRQAPGKERELVAAINWSGSSTYYADSVKGRVTISRDNAKNTVYLQMNRLKPEDTAVNYCAAERPWYTKWGEYWGQGTQVTVSS”, for which the “polyreactivity (PSR sort gate)” value is reported as “high polyreactivity”.

For the sequence “QVQLVESGGGLVHAGGSLRLSCAASVSTFLFYAMGWYRQAPGKEREFVAAITWSGGSTYYADSVKGRFTISRDNAKNTVYLQMNSLKPEDTAVYYCNGYYVPTTGREFYFAFYYWGQGTQVTVSS”, the “polyreactivity (PSR sort gate)” value is recorded as “low polyreactivity”.

Consider “QVQLVESGGGLVQAGGSLRLSCAASGITFIGYPMGWYRQAPGKERELVASITSGANTNYADSVKGRFTISRDNAKNTVYLQMNSLKPEDTAVYYCAAPEHGTYANILGEPLDYWGQGTQVTVSS”, for which the “polyreactivity (PSR sort gate)” value is given as “low polyreactivity”.

On to “QVQLVESAGGLVQAGGSLSISCAASGLTLTRNAMGWYRQAPGKERELVAAISGRGGSTYYADSVKGRFTISRDNAKNTVYLQMNSLKPEDTAVYYCAATVQYSPIYDYWGQGTQVTVSS”, for which the “polyreactivity (PSR sort gate)” value is “high polyreactivity”.

Consider “QVQLVESGGGLVQAGGSLRLSCAASGRTFWFYSMAWYRQAPGKERELVATINYRGGTTYYADSVKGRFTISRDNAKNTVYLQMNSLKPEDTAVYYCAVRPTRTFIYDYWGQGTQVTVSS”, for which the “polyreactivity (PSR sort gate)” value is given as “high polyreactivity”.

“QVQLVESGGGLVQAGGSLRLSCAASGFTIRRNAMGWYRQAPGKERELVAAISRSGGSTYADSVKGRFTISRDNAKNTVYLQMNSLKPEDTAVYYFASDHSYYRYTYTALIAEFYYWGQGTQVTVSS”: the “polyreactivity (PSR sort gate)” value is reported as “low polyreactivity”.
